Test [1] addresses T1, CD28 presented on CHO cells (UniProt P10747 19-220, limits assumed).
T1 construct: whole, on cells; also called CD28 CHO; CD28-expressing CHO cells
Briefly: flow cytometry, lower graph taken as panel B of the legend = CD28 CHO cells; FITC goat anti-human IgG [lower graph]. As to the method: (§1) Seeded plates containing the proteins were incubated on ice for one hour. Subsequently, the wells were washed once with 200 μl 1% FBS in PBS. Goat anti-human antibody labeled with FITC (Fc Sp) at 1:100 was then added to each well, and the plates were again incubated on ice for one hour. The plates were then washed once with 200 μl 1% FBS in PBS and the cells were re-suspended in 200 μl 1% FBS and analyzed by FACS.
(§2) To assess the binding properties of the anti-CD28 peptide 2E12 VHVL, CD28-expressing CHO cells were plated by seeding in individual wells of a culture plate. […] The 2E12IgGvHvL SMIP purified protein was added to individual seeded wells, again using a two-fold dilution scheme, i.e., from 20 μg/ml down to […]. One well received no protein to provide a background control. The plates were then incubated on ice for one hour, washed once with 200 μl 1% FBS in PBS, and goat anti-human antibody labeled with FITC (Fc Sp) at 1:100 was added to each well. The plates were again incubated on ice for one hour and subsequently washed once with 200 μl 1% FBS in PBS. Following re-suspension of the cells in 200 μl 1% FBS, FACS analysis was performed.
A general note: A flow cytometer gives signals particle by particle.

The target in test [2] is T2, CD28mIgG (UniProt P10747 19-152).
T2 construct: Bought reagent; the construct is not described; also called CD28Ig (Ancell); CD28 fused to mouse antibody; not shown: mouse Ig part of the bought fusion; not described
Put plainly: sandwich flow cytometry: fusion protein titrated on WIL-2S cells (held by CD20), then CD28mIgG, then FITC anti-mouse.

For test [3], the target named is T3, CD20 (human, UniProt P11836 1-297).
T3 construct: whole, on cells; 2H7 is called murine anti-human CD20; also called CD20 presented on WIL-2S cells; CD20 on Ramos, BJAB, SU-DHL-6 and DoHH2 B cells
T3 sequence (looked up): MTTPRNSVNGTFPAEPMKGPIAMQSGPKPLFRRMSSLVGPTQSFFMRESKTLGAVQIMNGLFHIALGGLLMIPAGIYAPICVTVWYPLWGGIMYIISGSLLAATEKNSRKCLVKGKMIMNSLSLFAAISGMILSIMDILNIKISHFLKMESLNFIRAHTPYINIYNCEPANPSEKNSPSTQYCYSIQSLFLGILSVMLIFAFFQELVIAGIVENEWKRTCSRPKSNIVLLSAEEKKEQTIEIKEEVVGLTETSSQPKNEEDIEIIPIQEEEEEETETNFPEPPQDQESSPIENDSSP
Briefly: flow cytometry, upper graph taken as panel A of the legend = WIL-2S cells (CD20); FITC goat anti-human IgG [upper graph]. As to the method: as §1, §2

For test [4], the target named is T3, CD20. Briefly: flow cytometry on WIL2-S cells (CD20), protein A purified protein at 0.72 ug/ml, FITC goat anti-human IgG. As to the method: “L1-L6” refers to the 2H7-sss-hIgG-Lx-2e12 molecules where […] represents the L1-L6 linkers and the 2e12 V regions in the orientation of VL-VH. All the molecules were tested at a concentration of 0.72 μg/ml, and the binding detected using FITC conjugated goat anti-human IgG at 1:100.

Test [5] deals with T3, CD20. Briefly: flow cytometry on WIL2S cells (CD20), FITC goat anti-human IgG; no unit printed on the axis (legend: ug/ml).

Substitutions are numbered along the chain they refer to. In names and notes the source's numbering stands.

B1: 2H7-sss-hIgG P238S/P331S-H6-2e12 VHVL (bispecific antibody)
chain: QIVLSQSPAILSASPGEKVTMTCRASSSVSYMHWYQQKPGSSPKPWIYAPSNLASGVPARFSGSGSGTSYSLTISRVEAEDAATYYCQQWSFNPPTFGAGTKLELKDGGGSGGGGSGGGGSSQAYLQQSGAESVRPGASVKMSCKASGYTFTSYNMHWVKQTPRQGLEWIGAIYPGNGDTSYNQKFKGKATLTVDKSSSTAYMQLSSLTSEDSAVYFCARVVYYSNSYWYFDVWGTGTTVTVSEPKSSDKTHTSPPSPAPELLGGSSVFLFPPKPKDTLMISRTPEVTCVVVDVSHEDPEVKFNWYVDGVEVHNAKTKPREEQYNSTYRVVSVLTVLHQDWLNGKEYKCKVSNKALPASIEKTISKAKGQPREPQVYTLPPSRDELTKNQVSLTCLVKGFYPSDIAVEWESNGQPENNYKTTPPVLDSDGSFFLYSKLTVDKSRWQQGNVFSCSVMHEALHNHYTQKSLSLSPGKGGGGSGGGGSGGGGSGNSQVQLKESGPGLVAPSQSLSITCTVSGFSLTGYGVNWVRQPPGKGLEWLGMIWGDGSTDYNSALKSRLSITKDNSKSQVFLKMNSLQTDDTARYYCARDGYSNFHYYVMDYWGQGTSVTVSSGGGGSGGGGSGGGGSGGGGSDIVLTQSPASLAVSLGQRATISCRASESVEYYVTSLMQWYQQKPGQPPKLLISAASNVESGVPARFSGSGSGTDFSLNIHPVEEDDIAMYFCQQSRKVPWTFGGGTKLEIKR
notes: Assembled from modules as m11; The preparation held a share of cleaved, SMIP-sized molecules; also called 2H7-sss-hIgG-H6-2e12
Usually EC50 (read off the curve) stands for the concentration needed to bring the measured effect to its halfway point. Read a high EC50 (read off the curve) as lower potency in that assay. B1: the “EC50 (read off the curve)” value in test [1] is ~0.8 µg/mL; in test [2], ~0.3 µg/mL; in test [3], ~1 µg/mL.

B2: 2H7-sss-hIgG-L3-2e12 (H3 linker, 2e12 VL-VH) (bispecific antibody)
chain (part 1 of 2): QIVLSQSPAILSASPGEKVTMTCRASSSVSYMHWYQQKPGSSPKPWIYAPSNLASGVPARFSGSGSGTSYSLTISRVEAEDAATYYCQQWSFNPPTFGAGTKLELKDGGGSGGGGSGGGGSSQAYLQQSGAESVRPGASVKMSCKASGYTFTSYNMHWVKQTPRQGLEWIGAIYPGNGDTSYNQKFKGKATLTVDKSSSTAYMQLSSLTSEDSAVYFCARVVYYSNSYWYFDVWGTGTTVTVSEPKSSDKTHTSPPSP
chain (part 2 of 2): NYGGGGSGNSDIVLTQSPASLAVSLGQRATISCRASESVEYYVTSLMQWYQQKPGQPPKLLISAASNVESGVPARFSGSGSGTDFSLNIHPVEEDDIAMYFCQQSRKVPWTFGGGTKLEIKRGGGGSGGGGSGGGGSQVQLKESGPGLVAPSQSLSITCTVSGFSLTGYGVNWVRQPPGKGLEWLGMIWGDGSTDYNSALKSRLSITKDNSKSQVFLKMNSLQTDDTARYYCARDGYSNFHYYVMDYWGQGTSVTVSS
notes: Assembled from modules as m10; not shown: human IgG1 CH2-CH3
B2: the binding result in test [4] is reported as “binds”.

B3: 2H7-sss-hIgG-STD1-G19-4 HL (bispecific antibody)
chain (part 1 of 2): B2 chain (part 1 of 2)
chain (part 2 of 2): NYGGGGSGGGGSGGGGSGNSEVQLQQSGPELVKPGASMKISCKASGYSFTGYIVNWLKQSHGKNLEWIGLINPYKGLTTYNQKFKGKATLTVDKSSSTAYMELLSLTSEDSAVYYCARSGYYGDSDWYFDVWGAGTTVTVSSGGGGSGGGGSGGGGSASDIQMTQTTSSLSASLGDRVTISCRASQDIRNYLNWYQQKPDGTVKLLIYYTSRLHSGVPSRFSGSGSGTDYSLTIANLQPEDIATYFCQQGNTLPWTFGGGTKLVTKRS
notes: Assembled from modules; also called 2H7sssIgG1-STD1-G19-4 HL; CD20-hIgG-CD3 multispecific molecule (SSS hinge, HL); not shown: human IgG1 CH2-CH3
Take B3: in test [5], the binding result is reported as “binds”.

B4: 2H7-sss-hIgG-L1-2e12 (H1 linker, 2e12 VL-VH) (bispecific antibody)
chain (part 1 of 2): B2 chain (part 1 of 2)
chain (part 2 of 2): NSDIVLTQSPASLAVSLGQRATISCRASESVEYYVTSLMQWYQQKPGQPPKLLISAASNVESGVPARFSGSGSGTDFSLNIHPVEEDDIAMYFCQQSRKVPWTFGGGTKLEIKRGGGGSGGGGSGGGGSQVQLKESGPGLVAPSQSLSITCTVSGFSLTGYGVNWVRQPPGKGLEWLGMIWGDGSTDYNSALKSRLSITKDNSKSQVFLKMNSLQTDDTARYYCARDGYSNFHYYVMDYWGQGTSVTVSS
notes: as for B2
For the molecule B4, the binding result in test [4] was “binds”.

B5: 2H7-sss-hIgG-L2-2e12 (H2 linker, 2e12 VL-VH) (bispecific antibody)
chain (part 1 of 2): B2 chain (part 1 of 2)
chain (part 2 of 2): GGGGSGNSDIVLTQSPASLAVSLGQRATISCRASESVEYYVTSLMQWYQQKPGQPPKLLISAASNVESGVPARFSGSGSGTDFSLNIHPVEEDDIAMYFCQQSRKVPWTFGGGTKLEIKRGGGGSGGGGSGGGGSQVQLKESGPGLVAPSQSLSITCTVSGFSLTGYGVNWVRQPPGKGLEWLGMIWGDGSTDYNSALKSRLSITKDNSKSQVFLKMNSLQTDDTARYYCARDGYSNFHYYVMDYWGQGTSVTVSS
notes: as for B2
On to B5, for which, in test [4], the binding result is listed as “binds”.

B6: 2H7-csc-hIgG-STD1-G19-4 HL (bispecific antibody)
chain (part 1 of 2): B2 chain (part 1 of 2) with S248C, S257C
chain (part 2 of 2): B3 chain (part 2 of 2)
notes: Assembled from modules; also called CD20-hIgG-CD3 multispecific molecule (CSC hinge, HL); not shown: human IgG1 CH2-CH3
As for B6, the binding result in test [5] is reported as “binds”.

B7: 2H7-sss-hIgG P238S/P331S-H3-2e12 VHVL (bispecific antibody)
chain: QIVLSQSPAILSASPGEKVTMTCRASSSVSYMHWYQQKPGSSPKPWIYAPSNLASGVPARFSGSGSGTSYSLTISRVEAEDAATYYCQQWSFNPPTFGAGTKLELKDGGGSGGGGSGGGGSSQAYLQQSGAESVRPGASVKMSCKASGYTFTSYNMHWVKQTPRQGLEWIGAIYPGNGDTSYNQKFKGKATLTVDKSSSTAYMQLSSLTSEDSAVYFCARVVYYSNSYWYFDVWGTGTTVTVSEPKSSDKTHTSPPSPAPELLGGSSVFLFPPKPKDTLMISRTPEVTCVVVDVSHEDPEVKFNWYVDGVEVHNAKTKPREEQYNSTYRVVSVLTVLHQDWLNGKEYKCKVSNKALPASIEKTISKAKGQPREPQVYTLPPSRDELTKNQVSLTCLVKGFYPSDIAVEWESNGQPENNYKTTPPVLDSDGSFFLYSKLTVDKSRWQQGNVFSCSVMHEALHNHYTQKSLSLSPGKNYGGGGSGNSQVQLKESGPGLVAPSQSLSITCTVSGFSLTGYGVNWVRQPPGKGLEWLGMIWGDGSTDYNSALKSRLSITKDNSKSQVFLKMNSLQTDDTARYYCARDGYSNFHYYVMDYWGQGTSVTVSSGGGGSGGGGSGGGGSGGGGSDIVLTQSPASLAVSLGQRATISCRASESVEYYVTSLMQWYQQKPGQPPKLLISAASNVESGVPARFSGSGSGTDFSLNIHPVEEDDIAMYFCQQSRKVPWTFGGGTKLEIKR
notes: Assembled from modules as m11; also called 2H7-sss-hIgG-H3-2e12 HL
For B7, the “EC50 (read off the curve)” value was ~0.8 µg/mL in test [1], ~0.4 µg/mL in test [2] and ~1 µg/mL in test [3].

B8: 2H7-sss-hIgG-H7-2e12 HL (bispecific antibody)
chain: QIVLSQSPAILSASPGEKVTMTCRASSSVSYMHWYQQKPGSSPKPWIYAPSNLASGVPARFSGSGSGTSYSLTISRVEAEDAATYYCQQWSFNPPTFGAGTKLELKDGGGSGGGGSGGGGSSQAYLQQSGAESVRPGASVKMSCKASGYTFTSYNMHWVKQTPRQGLEWIGAIYPGNGDTSYNQKFKGKATLTVDKSSSTAYMQLSSLTSEDSAVYFCARVVYYSNSYWYFDVWGTGTTVTVSEPKSSDKTHTSPPSPAPELLGGSSVFLFPPKPKDTLMISRTPEVTCVVVDVSHEDPEVKFNWYVDGVEVHNAKTKPREEQYNSTYRVVSVLTVLHQDWLNGKEYKCKVSNKALPASIEKTISKAKGQPREPQVYTLPPSRDELTKNQVSLTCLVKGFYPSDIAVEWESNGQPENNYKTTPPVLDSDGSFFLYSKLTVDKSRWQQGNVFSCSVMHEALHNHYTQKSLSLSPGKGCPPCPNSQVQLKESGPGLVAPSQSLSITCTVSGFSLTGYGVNWVRQPPGKGLEWLGMIWGDGSTDYNSALKSRLSITKDNSKSQVFLKMNSLQTDDTARYYCARDGYSNFHYYVMDYWGQGTSVTVSSGGGGSGGGGSGGGGSGGGGSDIVLTQSPASLAVSLGQRATISCRASESVEYYVTSLMQWYQQKPGQPPKLLISAASNVESGVPARFSGSGSGTDFSLNIHPVEEDDIAMYFCQQSRKVPWTFGGGTKLEIKR
notes: Assembled from modules as m11; also called 2H7-sss-IgG-H7-2e12-HL
On to B8, for which the “EC50 (read off the curve)” value is ~0.5 µg/mL in test [1], ~0.3 µg/mL in test [2] and ~1 µg/mL in test [3].

Values taken from patent publication US20140154252A1 (EMERGENT PRODUCT DEVELOPMENT SEATTLE, published 2014).
